Target: mutated SMN1 protein with T274YfsX32, myc-tagged (exogenous) (human) (UniProt Q16637)
Experiment: co-IP; lysate (1 mg) of HeLa cells 24 h after transfection, RIPA buffer without SDS; anti-myc-tag antibody on Dynabeads Protein A; washed three times; blots with anti-myc-tag and anti-SMN antibodies; band ratio End-SMN/Exo-SMN, in triplicate

## endogenous FL-SMN1 and/or FL-SMN2 protein (endogenous SMN protein) (from UniProt Q16637 1-294) (natural protein)
  ratio of End-SMN to Exo-SMN: 0.02
  ratio of End-SMN/Exo-SMN, percent of wild type: 4%

— article PMC8872419
